US20140302123A1 (INSTITUT PASTEUR, published 2014)

Key:
[1] = target: T1, Cyto13-vir (rabies virus (CVS-NIV RABV strain)); experiment: NMR titration (rounded value in the text)
[2] = target: T1, Cyto13-vir; experiment: NMR titration, 15N-labeled PTPN4-PDZ with unlabeled peptide
[3] = target: DARL-13 (rabies virus (vampire bat RABV strain)); experiment: as above

B1: PTPN4-PDZ (residues G499-N604) (other)
chain: GSPEKPTPNGGIPHDNLVLIRMKPDENGRFGFNVKGGYDQKMPVIVSRVAPGTPADLCVPRLNEGDQVVLINGRDIAEHTHDQVVLFIKASCERHSGELMLLVRPN
notes: range 500-604; also called PDZ of PTPN4; PTPN4 PDZ domain
For B1, the Kd [1] was 560 µM, the Kd [2] was 568 µM and the Kd [3] was 1280 µM.
